The target of assay [1] is T1, Human PD-L1 expressed on cells (human, UniProt Q9NZQ7 19-290). The assay can be described thus: cell-based or functional assay.
Assay [2] has as its target T2, Cyno PD-L1 FLAG (cynomolgus PD-L1 ECD with FLAG tag) (cynomolgus monkey).
T2 construct: also called cynomolgus monkey PD-L1-FLAG
Put plainly: SPR 25C, antibody captured, PD-L1 analyte. As to the method:
(§1) Label-free surface plasmon resonance (SPR) analysis was carried out on the ProteOn XPR36 (BioRad) array SPR machine. An anti-human IgG capture surface was created on a GLC biosensor chip using a combination of anti-human Fc antibodies (Jackson Labs 09-005-008,109-006-008 and 309-006-008) by amine coupling. […] The data was analysed using the 1:1 model inherent to the ProteOn XPR36 analysis software.

In assay [3] the target is T3, Human PD-L1 His (human PD-L1 ECD with C-terminal His tag) (human, UniProt Q9NZQ7 19-238).
T3 construct: Biotinylated in ELISA and AlphaScreen assays; also called hPD-L1-his; biotinylated PD-L1 his
The assay can be described thus: SPR 25C, antibody captured, PD-L1 analyte. As to the method:
as §1

The target of assay [4] is T3, Human PD-L1 His (human PD-L1 ECD with …). Put plainly: ELISA, biotin-PD-L1 to plate-bound PD-1, antibody titrated. As to the method: (§2) Excess protein was removed by washing with PBS-Tween (0.1% v/v) and the wells were blocked with 1% w/v bovine serum albumin (BSA, Sigma) in PBS for 1 hour at room temperature, after which plates were washed with PBS-Tween as above. 60 μL of a titration (three-fold serial dilution) of antibody was added to a 96-well, non-binding plate diluted in ELISA assay buffer (PBS +0.1% BSA). […] The plate was incubated for 30 minutes before transferring 50 μL to the coated plates. The coated plates were incubated for 1 hour at room temperature. Excess protein was removed by washing with PBS-Tween (0.1% v/v). PD-L1 binding was detected using streptavidin labelled europium (Perkin Elmer) diluted 1/1000 in DELFIA assay buffer (Perkin Elmer). The plates were washed with TBS (Tris buffered saline)-Tween (0.1% v/v) and 50 μL/well of DELFIA Enhancement solution (Perkin Elmer) was added to the plate. Time-resolved fluorescence was measured at 615 nm on an Envision plate reader (PerkinElmer). Percentage specific binding was calculated as defined in Equation 3. IC50 values were determined using GraphPad Prism software by curve fitting using a four-parameter logistic equation (Equation 4). Values for KM121 antibodies are a mean of three independent experiments. Values for KM122 are from a single experiment.
Background: ELISA stands for enzyme-linked immunosorbent assay.

The target of assay [5] is T1, Human PD-L1 expressed on cells. The assay can be described thus: flow cytometry on CHO hPD-L1 cells, competitor biotin-PD-1-Fc, n = 1. As to the method:
(§3) 150 μL FACS buffer is added and cells washed as described above. […] Cells are incubated at 4° C. for 60 minutes. Cells are washed twice with 150 μL FACS buffer, centrifuging at 300 g for 3 minutes after each wash step and aspirating supernatant. Cells are fixed, washed and resuspended for analysis as above. APC signal intensity (geometric mean) is measured by flow cytometry using a Beckman Coulter CYTOFLEX instrument. Data is plotted as percentage of receptor binding.
Background: A flow cytometer gives signals particle by particle.

The target of assay [6] is T2, Cyno PD-L1 FLAG (cynomolgus PD-L1 ECD …). The assay can be described thus: SPR 37C, antibody captured, PD-L1 analyte.
The target in assay [7] is T3, Human PD-L1 His (human PD-L1 ECD with …). Put plainly: SPR 37C, antibody captured, PD-L1 analyte.
Assay [8] has as its target T1, Human PD-L1 expressed on cells. The assay can be described thus: flow cytometry on CHO hPD-L1 cells, competitor biotin-PD-1-Fc, n = 2. As to the method:
as §3

The target is the same in assay [9]. Put plainly: cell-based or functional assay. The source holds these as a separate data set.
The target of another assay is T4, Mouse PD-L1 ECD His (mouse, UniProt Q9EP73 19-239).
T4 construct: also called mouse PD-L1 (his-tagged)
Put plainly: SPR 25C and 37C.

The target in assay [10] is T1, Human PD-L1 expressed on cells. The assay can be described thus: flow cytometry on CHO hPD-L1 cells, competitor biotin-CD80-Fc, n = 1. As to the method: as §3
(§4) All other steps are performed as per plate 2.

Assay [11] addresses T3, Human PD-L1 His (human PD-L1 ECD with …). Put plainly: ELISA, biotin-PD-L1 to plate-bound CD80, antibody titrated. As to the method: as §2
In assay [12] the target is T1, Human PD-L1 expressed on cells. Put plainly: cell-based or functional assay. The source holds these as a separate data set.
Assay [13] shares this target. The assay can be described thus: flow cytometry on CHO hPD-L1 cells, competitor biotin-CD80-Fc, n = 2. As to the method:
as §3, §4

Assay [14] addresses T3, Human PD-L1 His (human PD-L1 ECD with …). Put plainly: SPR 25C, antibody captured, PD-L1 analyte. As to the method: Label-free surface plasmon resonance (SPR) analysis was carried out on the ProteOn XPR36 (BioRad) array SPR machine. An anti-human IgG capture surface was created on a GLC biosensor chip using amine coupling of an anti-human IgG from GE Healthcare. […] The assay was carried out at 25° C. using HBS-EP (Teknova H8022). Buffer alone was used to reference the binding sensorgrams. The data was analysed using the 1:1 model inherent to the ProteOn XPR36 analysis software.
The source holds these as a separate data set.

The target is the same in assay [15]. The assay can be described thus: ELISA, biotin-PD-L1 to plate-bound CD80, antibody titrated. As to the method:
(§5) Excess protein was removed by washing with PBS-Tween (0.1% v/v) and the wells were blocked with 1% w/v bovine serum albumin (BSA, Sigma) in PBS for 1 hour at room temperature, after which plates were washed as described previously. 60 μL of a titration (three-fold dilutions from 100 nM) of antibody was added to a 96-well, non-binding plate diluted in ELISA assay buffer (PBS+0.1% BSA). […] The plate was incubated for 30 min before transferring 50 μL to the coated plates.
(§6) The coated plates were incubated for 1 hour at room temperature. Excess protein was removed by washing with PBS-Tween (0.1% v/v). PD-L1 binding was detected using streptavidin labelled Europium (Perkin Elmer) diluted 1/1000 in DELFIA assay buffer (Perkin Elmer). The plates were washed with TBS (Tris buffered saline)-Tween (0.1% v/v) and 50 μL/well of DELFIA Enhancement solution (Perkin Elmer) was added to the plate. The time-resolved fluorescence was measured at 615 nm on an Envision plate reader (PerkinElmer). Percentage specific binding was calculated as defined in Equation 3.
This is another data set of the same source.

Assay [16] shares this target. Put plainly: ELISA, biotin-PD-L1 to plate-bound PD-1, antibody titrated. As to the method: as §5, §6
The source holds these as a separate data set.

T2 sequence (chain, as listed by the source limits assumed): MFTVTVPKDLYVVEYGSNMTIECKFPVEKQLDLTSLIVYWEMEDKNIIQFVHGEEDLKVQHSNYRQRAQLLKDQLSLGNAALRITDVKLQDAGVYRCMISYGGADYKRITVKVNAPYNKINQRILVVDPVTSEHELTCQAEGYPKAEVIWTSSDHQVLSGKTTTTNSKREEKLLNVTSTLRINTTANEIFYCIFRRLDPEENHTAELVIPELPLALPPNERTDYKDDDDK
T1 sequence (Q9NZQ7 19-290 limits assumed): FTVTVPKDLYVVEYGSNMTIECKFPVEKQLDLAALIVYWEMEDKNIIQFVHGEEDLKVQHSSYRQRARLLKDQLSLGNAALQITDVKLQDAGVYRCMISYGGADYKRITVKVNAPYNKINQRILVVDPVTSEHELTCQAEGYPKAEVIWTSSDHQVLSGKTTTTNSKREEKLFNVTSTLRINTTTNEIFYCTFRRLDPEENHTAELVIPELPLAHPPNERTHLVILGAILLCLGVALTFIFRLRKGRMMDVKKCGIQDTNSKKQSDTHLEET
T4 sequence (Q9EP73 other isoform, or with tags, fused parts or gaps): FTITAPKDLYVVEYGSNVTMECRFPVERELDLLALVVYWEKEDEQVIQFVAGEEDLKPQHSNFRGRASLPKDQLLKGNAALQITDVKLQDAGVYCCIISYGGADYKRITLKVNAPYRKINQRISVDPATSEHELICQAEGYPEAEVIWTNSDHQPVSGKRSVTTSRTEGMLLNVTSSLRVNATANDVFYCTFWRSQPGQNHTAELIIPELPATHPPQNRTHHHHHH
T3 sequence (Q9NZQ7 19-238 limits assumed): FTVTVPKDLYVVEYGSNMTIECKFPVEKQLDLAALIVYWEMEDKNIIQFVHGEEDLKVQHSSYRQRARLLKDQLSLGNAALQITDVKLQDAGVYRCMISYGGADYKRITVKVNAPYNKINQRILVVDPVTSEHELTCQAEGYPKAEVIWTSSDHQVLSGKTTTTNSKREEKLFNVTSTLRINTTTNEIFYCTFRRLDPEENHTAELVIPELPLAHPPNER

B1: 416E01 (human IgG1) (antibody, V domains shown)
VH: EVQLAESGGGLVQPGGSLRLSCAASGFTFSNYAMSWVRQTPGKGLEWVSAISFSGGTTYYADSVKGRFTISRDNSKNTLYLHMNSLRADDTAVYYCAKDEAPAGATFFDSWGQGTLVTVSS
VL: DIQMTQSPSSVSASVGDRVTITCRASQGIRRWLAWYQQKPGKAPKLLISGASSLQSGVPSRFSGSGSGTDFTLIITSLQPEDFATYYCQQANSFPITFGQGTRLEIKR
On to B1, for which the “EC50, ADCC reporter assay, n = 1” value in assay [1] amounted to 80 pM. In addition, the “EC50, ADCC reporter assay, n = 2” value in assay [1] turned out to be 10.6 pM. Moreover, the “EC50, ADCC reporter assay, n = 3” value in assay [1] was found to be 22.9 pM. Moreover, the “max fold induction, ADCC reporter assay, n = 1” value (“max fold induction … n = 1” below) in [1] worked out at 32.1 fold. In addition, the “max fold induction, ADCC reporter assay, n = 2” value (from here on “max fold induction … n = 2”) in assay [1] is 33.8 fold. Besides, the “max fold induction, ADCC reporter assay, n = 3” value (shortened to “max fold induction … n = 3”) in assay [1] came to 60.2 fold. Moreover, the Kd – broadly, the constant that tells how readily two partners part at equilibrium – in assay [2] was found to be 411 pM; in assay [3], 193 pM; in assay [6], 998 pM; in [7], 511 pM. The half-maximal inhibitory concentration (IC50) (as a rule, the concentration that inhibits the measured activity by half) in [4] stood at 1720 pM; in assay [5], 810 pM; in assay [8], 890 pM; in assay [10] it was 1040 pM; in assay [11], 980 pM; in [13], 890 pM. The “mean EC50, IFNγ induction, monocyte-T cell co-culture” value (“mean EC50, IFNγ induction” below) in assay [9] came out at 64 pM. For the same molecule, the “mean fold increase IFNγ, monocyte-T cell co-culture” value (“mean fold increase IFNγ” for short) in assay [9] was 2.23 fold. Moreover, in the assay with Mouse PD-L1 ECD His, the binding result is on record as “no binding”. Further, the “EC50, IL-2 induction, murine T cell hybridoma assay, n = 1” value (“EC50, IL-2 induction … n = 1” below) in assay [12] was 190 pM. In addition, the “EC50, IL-2 induction, murine T cell hybridoma assay, n = 2” value (“EC50, IL-2 induction … n = 2” below) in assay [12] was found to be 150 pM. Also, in [12], the “EC50, IL-2 induction, murine T cell hybridoma assay, n = 3” value (“EC50, IL-2 induction … n = 3” below) worked out at 140 pM.

B2: 1D05 (control antibody of Examples 14 and 15, constant region not stated) (antibody, V domains shown)
VH: EVQLVESGGGLVQPGRSLRLSCAASGFTFDDYAMHWVRQVPGKGLEWVSGISWIRTGIGYADSVKGRFTIFRDNAKNSLYLQMNSLRAEDTALYYCAKDMKGSGTYGGWFDTWGQGTLVTVSS
VL: not shown
notes: Unfused 1D05 run beside the immunocytokines; also called wild type antibody
In assay [14], B2 yielded a Kd of 171 pM. The IC50 came to 882 pM in [15] and 1410 pM in [16].

B3: 413G05 (antibody, human IgG1, kappa, V domains shown)
VH: QVQLVESGGGLVKPGGSLRLSCAASGFTFSDYYMSWIRQVPGKGLEWVSYISTSGSTIYYADSVKGRFTISRDNAKNSLYLQMNSLRAEDAAVYHCARGITGTNFYHYGLGVWGQGTTVTVSS
VL: DIQMTQSPSSVSASVGDRVTITCRASQGINSWLAWYQQKPGKAPKLLIYAASTLQSGVPSRFSGSGSGADFTLTISSLQPEDFATYYCQQVNSFPLTFGGGTKVEIKR
For B3, in assay [1], the “EC50, ADCC reporter assay, n = 1” value was found to be 21.9 pM; the “EC50, ADCC reporter assay, n = 2” value is 20.9 pM; the “EC50, ADCC reporter assay, n = 3” value came out at 27.5 pM; the “max fold induction … n = 1” value turned out to be 13.2 fold. Moreover, in assay [1], the “max fold induction … n = 2” value came out at 16.4 fold and the “max fold induction … n = 3” value came out at 23.4 fold. Further, the dissociation constant Kd in [2] stood at 15 pM. For the same molecule, in [3], the Kd came out at 24 pM. This molecule showed a half-inhibitory concentration (IC50) in [4] of 2020 pM. This molecule displayed an IC50 in assay [5] of 1070 pM. In [6], this molecule showed a dissociation constant (Kd) of 46 pM. The Kd in assay [7] is 50 pM. In assay [8], the half-maximal inhibitory concentration (IC50) came to 1170 pM. Also, in [9], the “mean EC50, IFNγ induction” value was 82 pM and the “mean fold increase IFNγ” value was 2.85 fold. Further, the binding result with Mouse PD-L1 ECD His is “no binding”. In [10], this molecule came in with an IC50 of 1090 pM. The IC50 in [11] was 1100 pM. In assay [12], the “EC50, IL-2 induction … n = 1” value was found to be 290 pM; the “EC50, IL-2 induction … n = 2” value was found to be 110 pM; the “EC50, IL-2 induction … n = 3” value was 290 pM. The molecule also returned a half-maximal inhibitory concentration (IC50) in [13] of 1170 pM.

B4: 414B06 (antibody, V domains shown)
VH: EVHLVESGGGLVQPGGSLRLSCAASGFTFSSYWMNWVRQAPGKGLEWVANIKQDGSEKYYVDSVKGRFTVSRDNAKNSLYLQMNSLRAEDTAVYYCARVRQWSDYSDYWGQGTPVTVSS
VL: DIQMTQSPSSVSASVGDRVTITCRASQGISSWLAWYQQKPGKAPKLLIYAASSLQSGVPSRFSGSGSGTDFTLTISSLQPEDFATYYCQQANSFPFTFGPGTKVDIKR
notes: also called 414606
As for B4, in assay [1], the “EC50, ADCC reporter assay, n = 1” value came to 19.1 pM; the “EC50, ADCC reporter assay, n = 2” value was determined as 15 pM; the “EC50, ADCC reporter assay, n = 3” value is 24.2 pM; the “max fold induction … n = 1” value worked out at 10.9 fold. Besides, in assay [1], the “max fold induction … n = 2” value was determined as 20.1 fold and the “max fold induction … n = 3” value stood at 31.5 fold. In addition, the equilibrium dissociation constant (Kd) in assay [2] amounted to 192 pM. Also, the equilibrium dissociation constant (Kd) in assay [3] came to 172 pM. For the same molecule, the half-maximal inhibitory concentration (IC50) in assay [4] was found to be 1840 pM. Moreover, the IC50 in assay [5] was 950 pM. The molecule also displayed a dissociation constant (Kd) in assay [6] of 794 pM. Further, in [7], the Kd came to 778 pM. For the same molecule, the IC50 in assay [8] is 1220 pM. Moreover, in assay [9], the “mean EC50, IFNγ induction” value was 12 pM and the “mean fold increase IFNγ” value was found to be 3.33 fold. Besides, the binding result in the assay with Mouse PD-L1 ECD His is recorded as “no binding”. The molecule also yielded a half-inhibitory concentration (IC50) in assay [10] of 1260 pM. Moreover, in [11], inhibition was half-maximal at 1000 pM (IC50). Also, in [12], the “EC50, IL-2 induction … n = 1” value was 590 pM; the “EC50, IL-2 induction … n = 2” value came to 300 pM; the “EC50, IL-2 induction … n = 3” value stood at 180 pM. Moreover, the IC50 in assay [13] was determined as 1220 pM.

(Values after patent publication US20210380699A1 (published 2021).)
